Source: publication PMC6882859, “Core architecture of a bacterial type II secretion system” (Nature Communications, 2019)

T1: PulE with C-terminal StrepII tag (Klebsiella pneumoniae HS11286, UniProt A0A0H3GRZ5 1-497)
T1 construct: PulE ATPase of the Klebsiella pneumoniae HS11286 type II secretion system; N1E, N2E and CTE domains; also called PulE ATPase; GspE; source: E. coli C43 (DE3) with pspA knockout, co-expressed (from the pul operon in pASK3c, or full-length pulE alone in pASK3c); DDM-solubilised membranes; purified as part of a complex (StrepTrap, Flag resin); not shown: StrepII, C-terminal, kept
T1 sequence: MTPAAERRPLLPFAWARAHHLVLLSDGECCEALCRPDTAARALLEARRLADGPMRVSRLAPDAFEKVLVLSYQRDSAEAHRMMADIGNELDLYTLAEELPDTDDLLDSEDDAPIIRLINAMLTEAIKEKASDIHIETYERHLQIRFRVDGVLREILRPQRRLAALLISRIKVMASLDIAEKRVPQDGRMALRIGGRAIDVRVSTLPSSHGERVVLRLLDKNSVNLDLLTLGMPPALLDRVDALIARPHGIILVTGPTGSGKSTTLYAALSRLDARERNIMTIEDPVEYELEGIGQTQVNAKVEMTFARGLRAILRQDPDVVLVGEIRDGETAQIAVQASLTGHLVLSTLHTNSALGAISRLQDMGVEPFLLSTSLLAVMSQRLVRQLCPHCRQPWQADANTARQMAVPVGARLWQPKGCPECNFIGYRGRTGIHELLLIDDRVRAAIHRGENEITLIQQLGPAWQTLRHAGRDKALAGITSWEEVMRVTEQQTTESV

T2: PulE N1E domain (aa 1-108) with C-terminal StrepII tag (Klebsiella pneumoniae HS11286, UniProt A0A0H3GRZ5 1-108)
T2 construct: N1E domain of PulE, Klebsiella pneumoniae HS11286, aa 1-108; source: E. coli, co-expressed with Pul_(Lcyto) (pASK3c); not shown: StrepII, C-terminal, kept
T2 sequence: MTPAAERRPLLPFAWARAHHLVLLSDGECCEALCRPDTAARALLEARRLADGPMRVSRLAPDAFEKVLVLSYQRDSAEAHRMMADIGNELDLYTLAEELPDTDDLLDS

B1: PulC (natural protein)
chain: MPVSVMRLTNINKGIIKLLPQIVTLIILITAIPQLAKLTWRVVFPVSPEDISALPLTMPPAADPELKNVRPAFTLFGLAVKNSPTPTDAASLNQVPVSSLKLRLAGLLASSNPARSIAIIEKGNQQVSLSTGDPLPGYDARIAAILPDRIIVNYQGRKEAILLFNDSRAPSPPPTAAGNPPLVKRLREQPQNILTYLSISPVLSGDKLLGYRLNPGKDASLFRQSGLQANDLAIALNGIDLRDQEQAQQALQNLADMTEITLTVEREGQRHDIAFALGDE
notes: whole gene as part of the cloned operon pulC to pulO; has an N-terminus in the inner membrane, an HR domain and a PDZ domain; Only the HR domain (homology model) is fitted in the outer membrane complex map; also called GspC; source: E. coli C43 (DE3) with pspA knockout, co-expressed from the pul operon (pASK3c); DDM-solubilised membranes; purified as part of the complex (StrepTrap, Flag resin)
B2: PulL (natural protein)
chain: MNKINASPQAMLIVRLAAAQAPLHWQLFAPGEPHHEASGRWPTDDASPFPALAEQYPAWVLIPASDCAFHSLNLPAGLRKPPLQVAPFLLEEQLADDVEATHFALLHRQQAQCEIVAVQRQKMRDWLARCESLSLQPLALTPDVLALPWQPPAWSAVQVDEQWLIRHQPWGGMAAENVWLTELLQSEAEEHVIDSYSPPPAAPGVWREQPAQTLLTLAARHPAAQKLSLLQGEFAVRRRSAQASWRPARYAALALALLAGANSVLDHRDLARQAEAAQQASRAFYHRWFPTEKKVINPRLQMQQHLQTLTRQAQHAPLVDRLSALQNILSETPGIRLRALSWDAAGNRLQLDIAAVTSRALEQFTQRAQPRFRVRPGDMITKPDGIEGQLTLEENDG
notes: PulL of the Klebsiella pneumoniae HS11286 type II secretion system; bitopic inner membrane protein with a cytoplasmic domain (aa 1-235) and a periplasmic domain; a tag may have been present there; also called GspL; source: DDM-solubilised membranes; purified as part of a complex
B3: PulM (natural protein)
chain: MANLLIWWRQRTPSEQRLLLGLTGLLAACAFWYGLWQPWRAREAQWRQTLVKEQASLRWMTEQAPRLQQLSQQPAPAAKEALTALVMREAASHGLTVIRLQPQGKRLQITLQPCAFQALIDWLDAPAMRGVNAISLSVTGQPSRPGWVTVNHLLLERDDEG
notes: PulM of the Klebsiella pneumoniae HS11286 type II secretion system; whole gene as part of the cloned operon; also called GspM; source: DDM-solubilised membranes; purified as part of a complex
B4: PulN (natural protein)
chain: MKANWIAGGLLLVLYLLWLTATAPARLLAPMLPPGVQVGQFSGSVWRGAAQPVYWHGERLERLAWSLTLAGWQVSLSDPRGVMGQARLWGLRDLRLQEGRLTAPASLLSRWLMSTMPVKAAGEVTFSLTEGRFSDGRCRHIIAGGAQWRQARLHSPVGSLELAQVNGTFRCTVDGAVALTLRQDSHQLSLSGQGTLSPDGRYLFRGTLQPRQGMPPLLALLVTRPTANNAPGPTPWQLQGKWLPQEQK
notes: PulN of the Klebsiella pneumoniae HS11286 type II secretion system; whole gene as part of the cloned operon pulC to pulO; source: E. coli C43 (DE3) with pspA knockout, co-expressed from the pul operon (pASK3c); DDM-solubilised membranes; purified as part of the complex (StrepTrap, Flag resin)
B5: PulL cytoplasmic domain (aa 1-235) with C-terminal Flag tag (domain or fragment)
chain: MNKINASPQAMLIVRLAAAQAPLHWQLFAPGEPHHEASGRWPTDDASPFPALAEQYPAWVLIPASDCAFHSLNLPAGLRKPPLQVAPFLLEEQLADDVEATHFALLHRQQAQCEIVAVQRQKMRDWLARCESLSLQPLALTPDVLALPWQPPAWSAVQVDEQWLIRHQPWGGMAAENVWLTELLQSEAEEHVIDSYSPPPAAPGVWREQPAQTLLTLAARHPAAQKLSLLQGEFA
notes: cytoplasmic domain of PulL, Klebsiella pneumoniae HS11286, aa 1-235; source: E. coli, co-expressed (pCDF-duet); not shown: Flag, C-terminal, kept

Experiments:
[1] = molecular target: PulD (Klebsiella pneumoniae HS11286) (UniProt P15644); assay: cryo-EM structure; outer membrane complex of the co-expressed and co-purified Pul_CDELMNS complex on thin carbon film; focused refinement, C15 symmetry, 4.3 Å overall; PulC HR domain (7-8 Å) and PulS (~7 Å) as rigid-body fitted homology models; top views from a purification without glutaraldehyde
[2] = molecular target: T1, PulE with C-terminal StrepII tag; assay: SDS-PAGE densitometry of the co-purified complex; Pul_CDELMNS co-expressed and co-purified without glutaraldehyde, phenol extracted; fluorescent emission of Coomassie R250 and Sypro Ruby stained gels; six independent purifications; ratios standardised around PulE; conditions: both partners purified
[3] = molecular target: T2, PulE N1E domain (aa 1-108) with …; assay: SDS-PAGE densitometry of the co-purified complex; Pul_(E-N1E/Lcyto) complex, two independent purifications, duplicate gels, Coomassie Blue R250 imaged at 680 nm; conditions: both partners purified

| Molecule | stoichiometry N [2] | other results |
| --- | --- | --- |
| PulD (from UniProt P15644 28-660) (natural protein) | – | stoichiometry N [1]: 15 |
| PulS with C-terminal Flag tag (from UniProt P20440 18-125) (natural protein) | – | stoichiometry N [1]: 1 |
| B1 | 2.13 relative to PulE | – |
| B2 | 0.97 relative to PulE | – |
| B3 | 0.99 relative to PulE | – |
| B4 | 0.95 relative to PulE | – |
| B5 | – | stoichiometry N [3]: 1 |
